Target: FMRP (rat, UniProt Q80WE1 1-593)
Experiment: EMSA; 150 mM KCl, tRNA; three shifted bands; Filter binding: 10 mM Tris pH 7.5, 50 mM KCl, 1 mM DTT, room temperature; REMSA: 20 mM HEPES pH 7.6, 150 mM KCl, 0.5 mM DTT, 5% glycerol, 50 ng/ul tRNA, room te

B1: human MMP-9 wild-type probe (ssRNA)
RNA: GUUCUGGAGGAAAGGGAGGAGUGGAGGUGGGCUGGGCCCUCUCUUCUCACCUUUGUUUUUUGUUGGAGUGUUUCUAAU
  binding result: binds
